Results on 40 sequences are retold here after the nanobody polyreactivity screen of Harvey et al. (2022).

This data set in a line: yeast display, Sf9 membrane polyspecificity reagent, FACS + sequencing; frameworks hold sequencing errors. The procedure, abridged:
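Using colony PCR, genes from sorted yeast display clones were amplified, then sequenced on MiSeq at 2 × 250 and filtered by CDR length. The clones had been stained with 10% biotinylated, detergent-solubilized Sf9 membrane reagent for 1 hour at 4 °C and sorted by FACS into low and high (top ~1%) gates on anti-HA and streptavidin fluorescence. Polyreactivity labels come from the gate of origin.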
Turning to “QVQLVESGGGLVQAGGSLRLSCAASGRTFYSYAMGWYRQAPGKERELVAAISRGGNTYYADSVKGRFTISRDNAKNTVYLQMNSLKPEDTAVYYCAVVRVTYYASIYHRGYDYWGQGTQVTVSS”, the “polyreactivity (PSR sort gate)” value is “low polyreactivity”.

With “QVQLVESGGGLVQAGGSLRLSCAASGRTFYSYAMGWYRQAPGKERELVAAITWRGVRTYYADSVKGRFTISRDNAKNTVYLQMNSLKPEDTAVYYCAAGGVRTRSWDTSLINRYGYWGQGTQVTVSS”, the “polyreactivity (PSR sort gate)” value is on record as “high polyreactivity”.

“QVQLVESGGGLVQAGGSLRLSCAASGRTFYSYAMGWYRQAPGKERELVASISSSGASTYYADSVKGRFTISRDNAKNTVYLQMNSLKPEDTAVYYCNAVWRTSFITIYGFDYWGQGTQVTVSS”: the “polyreactivity (PSR sort gate)” value is recorded as “high polyreactivity”.

Regarding “QVQLVESGGGLVQAGGSLRLSCAASGRTFYSYAMGWYRQAPGKERELVATITNGDTTNYADSVKGRFTISRDNAKNTVYLQMNSLKPEDTAVYYCAKDISPGYDEYDYWGQGTQVTVSS”, the “polyreactivity (PSR sort gate)” value was “low polyreactivity”.

For “QVQLVESGGGLVQAGGSLRLSCAASGRTFYTNAMGWYRQAPGKERELSTNYADSVKGRFTISRDNAKNTVYLQMNSLKPEDTAVYYCNADGFLRFAGFDYWGQGTQVTVSS”, the “polyreactivity (PSR sort gate)” value was “low polyreactivity”.

On to “QVQLVESGGGLVQAGGSLRLSCAASGRTFYTNAMGWYRQARGKERELVAGISWGDGNTYYADSVKWRFTISRDNAKNTVYLQMNSLKPEDTALYYCAVTYIILWSYSHTEFDYWGQGNQVTVSS”, for which the “polyreactivity (PSR sort gate)” value is listed as “low polyreactivity”.

Regarding “QVQLVESGGGLVQAGGSLRLSCAASGRTFYTYAMGWYRQAPGKEREFVAAIDWSGGTTYYADSVKGRFTISRDNAKNTVFLQINSLKPEDTAVYYCAADDSFYRQYYYRAHGDYWGQGYQVTVSS”, the “polyreactivity (PSR sort gate)” value is “low polyreactivity”.

With “QVQLVESGGGLVQAGGSLRLSCAASGRTFYVNARGWYREAPGKERELVATISRGTRTYYADSVKGRFTISRDNAKNTVYLQMNSLIPEDTAVYYCAADARPYESPYYYWGQGTQVTVSS”, the “polyreactivity (PSR sort gate)” value was “high polyreactivity”.

In the case of “QVQLVESGGGLVQAGGSLRLSCAASGRTFYVNTMGWYRQAPGKEREFVAAISYSGGRTYYADSVKGRFTISRDNAKNTVYLQMNSLKPEDTAVYYCATRINSWSAYTKYDYWGQGTQVTVSS”, the “polyreactivity (PSR sort gate)” value is reported as “high polyreactivity”.

Take “QVQLVESGGGLVQAGGSLRLSCAASGRTFYVNTMGWYRQAPGKEREFVAAITWRDGSTYYADSVKGRFTISRDNAKNTVYLQMNSLKPEDTAVYYCAARNSHDGYYDEYYYWGQGTQVTVSS”: the “polyreactivity (PSR sort gate)” value is given as “low polyreactivity”.

As to “QVQLVESGGGLVQAGGSLRLSCAASGRTFYVYAMGWYRQAPGKERELVAAITKNGGNTYYADSVKGRFTISRDNAKNTVYLQMNSLKPEDTAVYYCAADKQGFLISYTGYDYWGQGTQVTVSS”, the “polyreactivity (PSR sort gate)” value is “low polyreactivity”.

Turning to “QVQLVESGGGLVQAGGSLRLSCAASGRTFYVYTMGLYRQAPGKELELVAAISSSGGSTYYADSVKGRFTISRDNAKNTVYLQMNSLKPEDTAVYYCNSQWSLTRYGYWGQGTQVTVSS”, the “polyreactivity (PSR sort gate)” value is listed as “high polyreactivity”.

In the case of “QVQLVESGGGLVQAGGSLRLSCAASGRTFYVYVMGWYRQAPGKEREFVAAINYGSTYYADSVKGRFTISRDNAKNTVYLQMNSLKPEDTAVYYCATRSGYDSVYYFYTLWYYYWGHGTQVTVSS”, the “polyreactivity (PSR sort gate)” value is “low polyreactivity”.

Turning to “QVQLVESGGGLVQAGGSLRLSCAASGRTFYWYALGWYRQAPGKERELVAAITKSGGSTYYADSVKGRFTISRDNAKNTVYLQMNSLKPEDTAVYYWAARYLYLLYYWGQGTQVTVSS”, the “polyreactivity (PSR sort gate)” value was “high polyreactivity”.

Turning to “QVQLVESGGGLVQAGGSLRLSCAASGRTFYWYGMGWYRQAPGKERELVATISRGSRTYYADSVKGRFTISRDNAKNTVYLQMNSLKPEDTAVYYCNADTWPGEYNGYFSGAYDYWGQGTQVTVSS”, the “polyreactivity (PSR sort gate)” value is on record as “high polyreactivity”.

With “QVQLVESGGGLVQAGGSLRLSCAASGRTFYYNAMGWSRQATGKERELVAAISGRAGSTYYADSVKGRYTISRDNAKNTVYLQMNSLKPEDTAVYYCNAVRYKYTGRFGYWGQGTQVTVSS”, the “polyreactivity (PSR sort gate)” value is given as “high polyreactivity”.

“QVQLVESGGGLVQAGGSLRLSCAASGRTFYYNAMGWYRQAPGKEMELVAVITRGSTYYADSVKGRFTISRDNAKNTVYLQMNSLKPEDTAVYYCAKYRHYHRGYDYWGQGTQVTVSS”: the “polyreactivity (PSR sort gate)” value is recorded as “high polyreactivity”.

With “QVQLVESGGGLVQAGGSLRLSCAASGRTFYYNAMGWYRQAPGKERELVARITSSGGSTYYADSVKGRFTISRDNAKSTVYLQMNSLKPEDTAVSYCAAGRSRYLWFGRDFDYWGQGTQVTVSS”, the “polyreactivity (PSR sort gate)” value was “low polyreactivity”.

Regarding “QVQLVESGGGLVQAGGSLRLSCAASGRTFYYNAMGWYRQAPGKERELVASISWSGTSTYYADSVKGRFTISRDNAKNTVYLQMNSLKPEDTAVYYCATDSYWRQDLYRYEYWGQGTQVTVSS”, the “polyreactivity (PSR sort gate)” value was “high polyreactivity”.

Regarding “QVQLVESGGGLVQAGGSLRLSCAASGRTFYYNDMGWYRQAPGKERELVAAISWSGVSTSYADSVKGRFTISRDNAKNTVYLQMNSLKPEDTAVYYCAADNDGWYFHITEYDYWGQGTQVTVSS”, the “polyreactivity (PSR sort gate)” value was “low polyreactivity”.

“QVQLVESGGGLVQAGGSLRLSCAASGRTFYYNDMGWYRQAPGKERELVATISSGGSTYYADSVKGRFTISRDNAKNTVYLQMNSLKPEDTAVYYCAKRRRYDGWYAGPLYKYDYWGQGTQVTVSS”: the “polyreactivity (PSR sort gate)” value is reported as “low polyreactivity”.

With “QVQLVESGGGLVQAGGSLRLSCAASGRTFYYYAMAWYRPAPGKERELVAAISWSGGRTYYADSVKGRFTISRDNAKNTVYLLMNSLIPVDTAVYYCNAEPPRGYTVSSGGEMDYWGQGTQVTVSS”, the “polyreactivity (PSR sort gate)” value is listed as “low polyreactivity”.

Regarding “QVQLVESGGGLVQAGGSLRLSCAASGRTFYYYAMGWYREAPGKERELVAAINSGVTTSYADSVKGRFTISRDNAKNTVYLQMNSLKPEDTAVYYCAARTFSAFWRGGYDYWGQGTQVTVSS”, the “polyreactivity (PSR sort gate)” value is recorded as “low polyreactivity”.

Turning to “QVQLVESGGGLVQAGGSLRLSCAASGRTFYYYAMGWYRHAPGKERELVAAISIGGITYADSVKGRFTISRDNAKNTVYLQMNSLKPEDTAVYYCAATARQSRGRFYWGQGTQVTVSS”, the “polyreactivity (PSR sort gate)” value is on record as “low polyreactivity”.

On to “QVQLVESGGGLVQAGGSLRLSCAASGRTFYYYAMGWYRQAPGKEMELGAAIRRSGSSTYYADSVKGRFTISRDNAKNTVYLQMNSLKPEDTAVYYCAAAVYQRARYYWGQGTQVTVSS”, for which the “polyreactivity (PSR sort gate)” value is “high polyreactivity”.

With “QVQLVESGGGLVQAGGSLRLSCAASGRTFYYYAMGWYRQAPGKERELVAAINSGGTTSYADSVKGRFTISRDNAKNTVYFQMNSLKPEDTAVYYCAASDYGFPEYLTAYFYWGQGTLVTVSS”, the “polyreactivity (PSR sort gate)” value was “low polyreactivity”.

For the sequence “QVQLVESGGGLVQAGGSLRLSCAASGRTFYYYAMGWYRQAPGKERELVAAIRWRATSTFYADSVKGRFTISRDNAKNTVYLQMNSLKPEDTAVYYCATRGRWGYSGRSQGYSIYNYWGQGTKVTVSS”, the “polyreactivity (PSR sort gate)” value is “high polyreactivity”.

Turning to “QVQLVESGGGLVQAGGSLRLSCAASGRTFYYYAMGWYRQAPGKERELVAAISGSGTNTYYADSVKGRFTISRDNAKNTVYLQMNSLKPEDTAVYYCAAEYFGFYTDGGVFDLYYWGQGTQVTVSS”, the “polyreactivity (PSR sort gate)” value was “low polyreactivity”.

For “QVQLVESGGGLVQAGGSLRLSCAASGRTFYYYAMGWYRQAPGKERELVAAISWTGGNTYYADSVKGRFTISRDNAKNTVYLQMNSLKPEDTAVYYCAKQTRGYVRGPMYYWGQGTQVTVSS”, the “polyreactivity (PSR sort gate)” value was “high polyreactivity”.

In the case of “QVQLVESGGGLVQAGGSLRLSCAASGRTFYYYAMGWYRQAPGKERELVAAITGSGANTYYADSVKGRFTISRDNAKNTVYLQMNSLKPEDTAVYYCNTRTLVAMGYWGQGTQVTVSS”, the “polyreactivity (PSR sort gate)” value is on record as “high polyreactivity”.

Regarding “QVQLVESGGGLVQAGGSLRLSCAASGRTFYYYAMGWYRQAPGKEREYVASITWRGGRTYYADSVKGRFTISRDNAKNTVYLQMNSLKPEDTAVYYCAADGSYAIGGYGYWGQGTQVTVSS”, the “polyreactivity (PSR sort gate)” value is “high polyreactivity”.

Turning to “QVQLVESGGGLVQAGGSLRLSCAASGRTFYYYAMGWYRQPPGKERELVAAIRWSTGSTYYADSVKGRFTISRVNAQITVYLQMNSLKPEDTAVYYCAADTWYIQWGYYWGQGTQVTVSS”, the “polyreactivity (PSR sort gate)” value is reported as “low polyreactivity”.

Take “QVQLVESGGGLVQAGGSLRLSCAASGRTFYYYDMGWYRQAPGKERELVAAIRRSGGSTYYADSVKGRFTISRDNAKNTVYLQMNSLKPEDTAVYYCAAGRRYSGSYDYRGQGTQVTVSS”: the “polyreactivity (PSR sort gate)” value is listed as “high polyreactivity”.

For the sequence “QVQLVESGGGLVQAGGSLRLSCAASGRTFYYYTMGWYRQAPGKDRELVAAIRGSGGSTYYADSVKGRFTISRDNAKNTVYLQMNSLKPEVTAVYYCNATRRRSARYGYISAYDYWGQGTQVTVSS”, the “polyreactivity (PSR sort gate)” value is on record as “high polyreactivity”.

For the sequence “QVQLVESGGGLVQAGGSLRLSCAASGRTFYYYTMGWYRQAPGKERELVAANTWNGGSTYYADSVKGRFTISRDNAKNTVYLQMNSLKPEDPAVYYCNARWTWRYDYWGQGTQVTVSS”, the “polyreactivity (PSR sort gate)” value is recorded as “high polyreactivity”.

Take “QVQLVESGGGLVQAGGSLRLSCAASGRTFYYYVMGWYRQAPGKERELVAGITWSGGGTYYADSVKGRFTISRYNAKNTVYLQMNRLKPEDTAVYYCAKKDTLSNRWYGYWGEGTQVTVSS”: the “polyreactivity (PSR sort gate)” value is “high polyreactivity”.

As to “QVQLVESGGGLVQAGGSLRLSCAASGRTFYYYYTMGWYRQAPGKERELVAAISRSGSTNYADSVKGRFTISRDNAKNTVYLQMNSLKPEDTAVYYCARSYRSDGSRFGYWGQGTQVTVSS”, the “polyreactivity (PSR sort gate)” value is recorded as “low polyreactivity”.

Take “QVQLVESGGGLVQAGGSLRLSCAASGRTGYMGWYRQAPGKERELVAAITSRGGSTYYADSVKGRFTISRDNAKNTVYLQMNSLKPEDTAVYYCAAPAYHKRTSRGDYWGQGTQVTVSS”: the “polyreactivity (PSR sort gate)” value is “low polyreactivity”.

“QVQLVESGGGLVQAGGSLRLSCAASGRTIAPYAMGSYRQAPGKERELVAAITYSGGSTYYADSVKGRFTISRDNAKNTVYLQMNSLKPEDTAVYYCAVDTTTSYTVEYDYWGQGTQVTVSS”: the “polyreactivity (PSR sort gate)” value is on record as “low polyreactivity”.

Turning to “QVQLVESGGGLVQAGGSLRLSCAASGRTIASYTMGWYRPAPGKERDLVAAISKSGGSTYYADSVKGRFTISRDNSKNTVYLQMNSLKPEDTAVYYCNAVGARVASATGMEYWGQGTQVTVSS”, the “polyreactivity (PSR sort gate)” value is recorded as “high polyreactivity”.
